According to IntAct's records for PubMed 18045938:

B1: Envelope glycoprotein B (Human herpesvirus 8), F5HB81 (parent)
chain: MTPRSRLATLGTVILLVCFCAGAAHSRGDTFQTSSSPTPPGSSSKAPTKPGEEASGPKSVDFYQFRVCSASITGELFRFNLEQTCPDTKDKYHQEGILLVYKKNIVPHIFKVRRYRKIATSVTVYRGLTESAITNKYELPRPVPLYEISHMDSTYQCFSSMKVNVNGVENTFTDRDDVNTTVFLQPVEGLTDNIQRYFSQPVIYAEPGWFPGIYRVRTTVNCEIVDMIARSAEPYNYFVTSLGDTVEVSPFCYNESSCSTTPSNKNGLSVQVVLNHTVVTYSDRGTSPTPQNRIFVETGAYTLSWASESKTTAVCPLALWKTFPRSIQTTHEDSFHFVANEITATFTAPLTPVANFTDTYSCLTSDINTTLNASKAKLASTHVPNGTVQYFHTTGGLYLVWQPMSAINLTHAQGDSGNPTSSPPPSASPMTTSASRRKRRSASTAAAGGGGSTDNLSYTQLQFAYDKLRDGINQVLEELSRAWCREQVRDNLMWYELSKINPTSVMTAIYGRPVSAKFVGDAISVTECINVDQSSVNIHKSLRTNSKDVCYARPLVTFKFLNSSNLFTGQLGARNEIILTNNQVETCKDTCEHYFITRNETLVYKDYAYLRTINTTDISTLNTFIALNLSFIQNIDFKAIELYSSAEKRLASSVFDLETMFREYNYYTHRLAGLREDLDNTIDMNKERFVRDLSEIVADLGGIGKTVVNVASSVVTLCGSLVTGFINFIKHPLGGMLMIIIVIAIILIIFMLSRRTNTIAQAPVKMIYPDVDRRAPPSGGAPTREEIKNILLGMHQLQQEERQKADDLKKSTPSVFQRTANGLRQRLRGYKPLTQSLDISPETGE

Variants of: B1
Settings: with itb3_human ITGB3, P05106
itb3_human ITGB3, P05106, sequence (P05106 whole entry): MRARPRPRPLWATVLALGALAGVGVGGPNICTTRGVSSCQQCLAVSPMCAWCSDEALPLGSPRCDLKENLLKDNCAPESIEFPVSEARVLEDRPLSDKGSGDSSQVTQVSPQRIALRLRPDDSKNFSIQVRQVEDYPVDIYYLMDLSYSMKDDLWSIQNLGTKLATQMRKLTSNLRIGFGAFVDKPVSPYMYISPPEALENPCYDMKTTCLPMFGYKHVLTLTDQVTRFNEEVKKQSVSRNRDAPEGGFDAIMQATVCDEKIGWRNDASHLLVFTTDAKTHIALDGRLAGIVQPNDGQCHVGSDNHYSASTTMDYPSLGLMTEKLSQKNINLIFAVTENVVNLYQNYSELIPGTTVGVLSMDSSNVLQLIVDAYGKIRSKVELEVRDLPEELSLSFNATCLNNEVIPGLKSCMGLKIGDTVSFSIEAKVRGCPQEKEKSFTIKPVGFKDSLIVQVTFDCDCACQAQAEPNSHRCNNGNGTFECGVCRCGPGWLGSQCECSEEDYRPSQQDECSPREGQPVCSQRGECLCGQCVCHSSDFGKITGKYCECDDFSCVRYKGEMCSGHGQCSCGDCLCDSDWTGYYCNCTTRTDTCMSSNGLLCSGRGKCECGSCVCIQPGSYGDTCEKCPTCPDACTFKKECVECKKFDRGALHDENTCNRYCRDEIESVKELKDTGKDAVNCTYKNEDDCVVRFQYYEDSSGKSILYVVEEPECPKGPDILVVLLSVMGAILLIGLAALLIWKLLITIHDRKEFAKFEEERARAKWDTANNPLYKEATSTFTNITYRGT

Variant | effect of a mutation on the interaction
D29E | disrupting interaction
